Experimental data from paper PMC2424011.

B1: mouse recombinant sFRP-3 (R&D) (natural protein)
chain: AACEPVRIPLCKSLPWNMTKMPNHLHHSTQANAILAMEQFEGLLGTHCSPDLLFFLCAMYAPICTIDFQHEPIKPCKSVCERARQGCEPILIKYRHSWPESLACDELPVYDRGVCISPEAIVTADGADFPMDSSTGHCRGASSERCKCKPVRATQKTYFRNNYNYVIRAKVKEVKMKCHDVTAVVEVKEILKASLVNIPRDTVNLYTTSGCLCPPLTVNEEYVIMGYEDEERSRLLLVEGSIAEKWKDRLGKKVKRWDMKLRHLGLGKTDASDSTQNQKSGRNSNPRPARS

Key:
[1] = molecular target: mouse recombinant sFRP-3 (R&D) (mouse) (UniProt P97401); test: other fluorescence titration; competition: 250 nM native EGF added to 25 nM EGFAlexa488 prior to 100 nM sFRP-3, in PBS; spectrum of Alexa488, peak at 517 nm
[2] = molecular target: Alexa488-conjugated EGF; test: as above

Molecule	decrease of the EGFAlexa488 absorbance value at the emission peak when native EGF was added before sFRP-3 [1] [units]	decrease of the EGFAlexa488 absorbance value at the emission peak [2] [units]
recombinant mouse EGF (ligand)	7	
B1		10
